Assay results taken from article PMC4601012 (Scientific Reports, 2015).

B1: H123#437 scFv (scFv, V domains shown)
VH: QVQLVQSGAEVKKPGSSVKVSCTSSEFMFPAFAISWVRQAPGQGLEWLGGISPMFDHPNYAQKFQGRVTITADQSTRTAYMDLRSLRSEDTAVYYCARSPTYLPSGVFDHWGQGTLVTVSS
VL: QPGLTQPPSVSKGLRQTATLTCTGNSNNVGNQGAAWLQQHQGHPPKLLSYRNNDRPSGISERFSASRSGNTASLTITGLQPEDEADYYCSTWDSSLSAVVFGGGTKLTVL
notes: source: E. coli ER2738, phage-free soluble scFv in filtered culture supernatant; not shown: E-tag, C-terminal, kept
B2: F10 scFv (scFv, V domains shown)
VH: QVQLVQSGAEVKKPGSSVKVSCTSSEVTFSSFAISWVRQAPGQGLEWLGGISPMFGTPNYAQKFQGRVTITADQSTRTAYMDLRSLRSEDTAVYYCARSPSYICSGGTCVFDHWGQGTLVTVSS
VL: B1 VL
notes: not shown: E-tag, C-terminal, kept
B3: F10 IgG (antibody, V domains shown)
VH: B2 VH
VL: B1 VL
B4: H123#437 IgG (antibody, V domains shown)
VH: B1 VH
VL: B1 VL

Key:
[1] = target: T1, CA/09 H1 HA: hemagglutinin of A/California/7/2009 (H1N1) (Influenza A virus A/California/07/2009 …, UniProt C3W5X2, strain); test: ELISA; details: one partner purified
T1 construct: source: insect cells, expressed and purified (Supplementary Methods)

[2] = target: BS/07 H1 HA: hemagglutinin of A/Brisbane/59/2007(H1N1) (Influenza A virus A/Brisbane/59/2007 …, strain); test: ELISA
[3] = target: T1, CA/09 H1 HA: hemagglutinin of …; test: SPR; details: both partners purified

Row | Binder | normalized binding affinity (relative to F10 scFv) [1] | binding result ([2]; one partner purified) | Kd [3] [nM] | koff [3] [s⁻¹] | kon [3] [M⁻¹ s⁻¹] | binding result ([2]; both partners purified)
1 | B1 | 5.2 | – | – | – | – | –
2 | B2 | – | binds | – | – | – | –
3 | B3 | – | – | 0.046 | 1.11e-05 | 240000 | binds
4 | B4 | – | – | 0.091 | 3.52e-05 | 386000 | binds
